This assay concerns Arabidopsis thaliana T1 plants. Kind of assay: Topramezone tolerance of transgenic Arabidopsis thaliana T1 plants (pesticide damage grade by bleached leaf area, score, resistance evaluation). Type of assay: in vivo. The following applies: HPPD F372V mutants, Table 7. In outline: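 Eighteen days after sowing, wild-type and HPPD-transgenic T1 Arabidopsis receive a topramezone spray at 1×, 2× or 4× field rate (25–100 g ai/ha) or water. Seven days later each plant is graded by its proportion of bleached leaf area.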

B1: BnHPPDm-F372V: Brassica napus HPPD mutant F372V, SEQ ID NO: 369 (protein)
chain: MGHENAAVCETQQHDDAASPGFKLVGFSKFVRKNPKSDKFKVKRFHHIEFWCGDATNVSRRFSWGLGMRFSAKSDLSTGNMVHASYLLTSGDLRFLFTAPYSPSLSAGEAQPSATASIPSFDHASCRSFFSSHGLGVRAVAIEVEDAESAFSISVANGAVPSSPPNVLNGAVTIAEVKLYGDVVLRYVSYYNGTVSFLPGFESVDDTSSFPLDYGIRRLDHAVGNVPELGPALTYLAGFTGFHQFAEFTADDVGTAESGLNSAVLANNDEMVLLPINEPVHGTKRKSQIQTFLEHNEGAGLQHLALMSEDIFRTLREMRKRSGVGGFDFMPSPPPTYYKNLKKRVGDVLSEEQIEECEELGILVDRDDQGTLLQIVTKPLGDRPTIFIEIIQRVGCMKRDEEGKVYQSGGCGGFGKGNFSELFKSIEEYEKTLEAKQLVG
modifications: BnHPPDm-F372V Amino Acid Sequence
On to B1, for which the Resistance evaluation entry is listed as “Poorly resistant” (topramezone 25 g ai/ha (1x)) and “Non-resistant” (topramezone 100 g ai/ha (4x)).

B2: MsHPPDm-F372V: Medicago sativa HPPD mutant F372V, SEQ ID NO: 373 (protein)
chain: MAIETETQTQTGFKLVGFKNFVRANPKSDRFKVKRFHHVEFWCTDATNTARRFSHGLGMPIVAKSDLSTGNQTHASYLLRSGDLNFLFSAAYSPSISLSSPSSTAAIPTFSASNCFSFSASHGLAVRAVAVEVEDAELAFTTSVNNGAIPSSPPVILENHVKLAEVRLYGDVVLRYVSYNDPNPNQNPNLLFLPGFERVSDESSNSSLDFGIRRLDHAVGNVPELSSAVKYVKDFTGFHEFAEFTAEDVGTSESGLNSVVLANNEETVLLPMNEPVYGTKRKSQIETYLEHNEGAGLQHLALKSEDIFRTLREMRKRSGVGGFEFMPSPPVTYYRNLKNRVGDVLSDEQIKECEELGILVDRDDQGTLLQIVTKPIGDRPTIFIEIIQRVGCMLKDEEGKEYQKGGCGGFGKGNFSELFKSIEEYEKTLETRRTA
modifications: MsHPPDm-F372V Amino Acid Sequence
Turning to B2, the Resistance evaluation entry runs as follows: (topramezone 25 g ai/ha (1x)) “Poorly resistant”; (topramezone 100 g ai/ha (4x)) “Non-resistant”.

B3: CsHPPDm-F372V: Cucumis sativus HPPD mutant F372V, SEQ ID NO: 379 (protein)
chain: MGKEADFPRAPSEATDGGATASQSEFELQGFDNFIRTNPKSDRFKVKRFHHIEFWCTDATNVARRFSWGLGMQIVAKSDLSTGNMTHASYLLRSGHLCFLFTAPYSPSIAAAQNLTPASTASIPSFDHSVCRSFSGTHGFGARAIALEVEDAEIAFRTSVAHGAKPSCPPIVLENRAVLSEVHLYGDVVLRYISYKNPVSGDNGENKPDEWFLPKFEAMEETASFPLDFGIRRLDHAVGNVPELGPAVSYLKGFTGFHEFAEFTAEDVGTSESGLNSMVLANNEEMVLLPINEPVFGTKRKSQIQTYLEHNEGAGVQHLALMSEDIFRTLREMRKRSSVGGFEFMPSPPPTYYKNLKSRAGDVLTDEQIKECEELGILVDKDDQGTLLQIVTKPVGDRPTIFIEIIQRLGCMMKDEEGKAFQKGGCGGFGKGNFSELFKSIEEYEKTLEAKRVSE
modifications: CsHPPDm-F372V Amino Acid Sequence
For the molecule B3, the Resistance evaluation entry is given as “Poorly resistant” (topramezone 25 g ai/ha (1x)) and “Non-resistant” (topramezone 100 g ai/ha (4x)).

B4: CyHPPDm-F372V: Cyanobacteria HPPD mutant F372V, SEQ ID NO: 387 (protein)
chain: MEFDYLHLYVDDYQSAHRCYQRQWGFTCVNKIITDQGITGIYQQGQILLLISASESSLSRYADYLQKHPPGVGEVAWQVANWQKIQHQLSELQIETTPVIHPLTKAEGLTFLLWGDVHHSIYPVRSELNQNKTLHGVGLTTIDHVVLNIAADQFTQASQWYQQVFGWSVQQSFTVNTPHSGLYSEALASANGKVQFNLNCPTNNSSQIQTFLANNHGAGIQHVAFSTTSITRTVAHLRERGVNFLKIPTGYYQQQRNSSYFNYASLDWDTLQCLEILLDDQDNTGERLLLQIVSQPCYGVGTLFWEIIERRHRAKGFGQGNFQALYEAVETLEKQLEVP
modifications: CyHPPDm-F372V Amino Acid Sequence
As for B4, the Resistance evaluation entry by setting is: (topramezone 25 g ai/ha (1x)) “Poorly resistant”; (topramezone 100 g ai/ha (4x)) “Non-resistant”.

B5: HaHPPDm-F372V: Helianthus annuus HPPD mutant F372V, SEQ ID NO: 371 (protein)
chain: MGTEATVAAVVAGDESDHPTSAFKLVGFKNFIRTNPMSDKFTVKNFHHIEFWCSDATNTARRFSWGLGMPIIFKSDLSTGNSTHASYLLRSGHLNFLFTAPYSPSISPTTTTASIPTFSHSASRHFTATHGLAVRAIAVEVEDAETAFAVSVANGAKPSSPPVTLGHNDVVLSEVKLYGDVVLRYVSYKNNTNNNNNNDNDNYIFLPGFEAMDKTSSFQELDYGIRRLDHAVGNVPELAPAVDYVKSFTGFHEFAEFTAEDVGTSESGLNSVVLACNSEMVLIPMNEPVYGTKRKSQIQTYLEHNEGAGVQHLALASEDIFRTLREMRKRSGVGGFEFMPSPPPTYYRNLKSRAGDVLSDEQIKECEELGILVDRDDQGTLLQIVTKPVGDRPTIFIEIIQRVGCMVKDDEGKVQQKAGCGGFGKGNFSELFKSIEEYEKTLEARSTTAA
modifications: HaHPPDm-F372V Amino Acid Sequence
For B5, the Resistance evaluation result (topramezone 25 g ai/ha (1x)) was “Poorly resistant” and the Resistance evaluation entry (topramezone 100 g ai/ha (4x)) is listed as “Non-resistant”.

B6: SlHPPDm-F372V (protein)
chain: MGKQAAAAADDQQLPGDIEDKFKLVGFNHFVRTNPRSDFFTVKRFHHIEFWCGDATNTARRFSWGLGLPIAAISDLSTGNSVHASYLLRSSSSSQLQFLFTAPYSSAISTSSSASIPTFSVSSHRSFTATHGLGVRAIALEVENSRLAFSTCVAHGAKPVSEPVILNDEVVIAEVHLYGDVVLRFVSFLKDSNCFVFLPGFESVEGAQLDYGIRRLDHAVGNVPELGPVVEYIKSFTGFHEFAEFTAEDVGTAESGLNSVVLANNDETVLFPLNEPVYGTKRKSQIQTYLEHNEGAGVQHLALVTEDIFRTLREMRKRSGIGGFEFMPSPPPTYYKNLKTRAGDILSDEQIQECEELGILVDRDDQGTLLQIVTKPVGDRPTIFLEIIQRIGCMLKNEEGELYQKGGCGGFGKGNFSELFKSIEEYEKTLEAKQNTQVAIA
modifications: SlHPPDm-F372V Amino Acid Sequence
Consider B6, for which the Resistance evaluation entry (topramezone 25 g ai/ha (1x)) is given as “Poorly resistant” and the Resistance evaluation entry (topramezone 100 g ai/ha (4x)) is on record as “Non-resistant”.

B7: AhHPPDm-F372V: Arachis hypogaea HPPD mutant F372V, SEQ ID NO: 385 (protein)
chain: MATAYTYAHAVTYCNSQHNPPIIPILSTNQHPPRVTLPSSIPHFISTITTFNLKHFPSHSLHTVMVTQTQQNAPSSSPELGFKLVGFKNFVRTNPKSDRFKVIRFHHVEFWCTDATNTASRFSWGLGMPIVAKSDLSTGNAVHASYLLRSGDLNFLFSAPYSASIAGDGASASFPSFSASDCHSFAAKHGLAVRAVAIEVEDASAAFSASVANGAKPVSPAVLLDNSVGFAEVHLYGDVVLRYISYSAPTRESNLNPTLRFLPGFEAVEADSSFPELDYGIRRLDHAVGNVPELAPAVNYLKKFTGFHEFAEFTAEDVGTSESGLNSVVLASNDEMVLLPLNEPVYGTKRKSQIETYLEHNEGAGLQHLALVSEDIFRTLREMRKRSTIGGFQFMPSPPPTYYRNLKKRAGDVLSDEQIKECEELGILVDRDDQGTLLQIVTKPVGDRPTIFIEIIQRIGCMLKDEEGKVYQKGGCGGFGKGNFSELFKSIEEYEKTLESRRTA
modifications: AhHPPDm-F372V Amino Acid Sequence
On to B7, for which the Resistance evaluation entry is “Poorly resistant” (topramezone 25 g ai/ha (1x)) and “Non-resistant” (topramezone 100 g ai/ha (4x)).

B8: NtHPPDm-F372V: Nicotiana tabacum HPPD mutant F372V, SEQ ID NO: 377 (protein)
chain: MGKLETVTTTSAAAADDSSELTTNFKLVGFKNFIRTNPRSDFFSVKSFHHIEFWCGDATNTARRFSWSLGMPIAAKSDLSTGNSVHASYLLRPVSGSLQFLFTAPYSPSISTPSSAAIPSFSTSTHRSFTTTHGLGVRAVALEVENAYTAFSASVSRGAKPMFEPVTIDEQVAMAEVHLYGDVVLRFVSYLKDADNLVFLPGFEAMDETASYKELDYGIRRLDHAVGNVPELGPVVDYIKRFTGFHEFAEFTAEDVGTAESGLNSMVLANNDETVLLPLNEPVYGTKRKSQIQTYLEHNEGAGVQHLALVTEDIFKTLTEMRKRSGVGGFEFMPSPPPTYYKNLKNRAGDVLSDEQILACEELGILVDRDDQGTLLQIVTKPVGDRPTIFIEIIQRIGCMLKDGKGQVYQKGGCGGFGKGNFSELFRSIEEYEKTLEAKQANQVAAA
modifications: NtHPPDm-F372V Amino Acid Sequence
As for B8, the Resistance evaluation entry is, setting by setting: (topramezone 25 g ai/ha (1x)) “Poorly resistant”; (topramezone 100 g ai/ha (4x)) “Non-resistant”.

B9: StHPPDm-F372V: Solanum tuberosum HPPD mutant F372V, SEQ ID NO: 381 (protein)
chain: MGKQAATATATATATADDQQLPADIEDKYKLVGFNNFVRTNPRSDLFNVKRFHHIEFWCGDATNTARRFSWGLGLPIAAKSDLSTGNSVHASYLLRSSSSQLQFLFTAPYSPAISTPSSSSIPTFSVSSHRSFTETHGLGVRAIALEVENSRLAFSTCVSHGAKPVSEPVILNDEVVISEVHLYGDVVLRFVSFLKDSNRFVFLPGFELVEGAQLDYGIRRLDHAVGNVPQLGPVVEYIKSFTGFHEFAEFTAEDVGTAESGLNSVVLANNDETVLFPLNEPVYGTKRKSQIQTYLEHNEGAGVQHLALVTEDIFRTLREMRKRSGIGGFEFMPSPPPTYYKNLKSRAGDILSDEQIKECEELGILVDRDDQGTLLQIVTKPVGDRPTIFLEIIQRIGCMLQNAEGELYQKGGCGGFGKGNFSELFKSIEEYEKTLEAKQNTQVAIA
modifications: StHPPDm-F372V Amino Acid Sequence
For B9, the Resistance evaluation entry reads like this: (topramezone 25 g ai/ha (1x)) “Poorly resistant”; (topramezone 100 g ai/ha (4x)) “Non-resistant”.

B10: BvHPPDm-F372V: Beta vulgaris HPPD mutant F372V, SEQ ID NO: 375 (protein)
chain: MGTLSPQPQTSPSQFKLVGYSNFIRVNPLSDLFPVKRFHHVEFWCGDATNVSRRFSWGLGMPIVAKSDLSTGNSVHASYLLRSGELHFLFTSPYSPSLSSPSSATIPTFSFSLFTSFLTSHGLAVRAVAVEVQDAEAAFHISVSNGASPVSPPIRLHDGVVLSEVHLYGDVVLRYVSTSSVVDGIFLPGFEEMLGESSFQELDFGLRRLDHAVGNVPELAPAIEYVKKFTGFHEFAEFTTEDVGTSESGLNSAVVANNDETVLFPMNEPVYGTKRKSQIQTYLEHNEGAGVQHLALMSEDIFWTLREMRKRSGLGGFEFMPSPPPTYYRNLRNRAADVLSEEQMKECEELGILVDKDDQGTLLQIVTKPIGDRPTMFIEIIQRIGCMMKDEEGKVYQKGGCGGFGKGNFSELFKSIEEYEKTLERKPIADTNAT
modifications: BvHPPDm-F372V Amino Acid Sequence
On to B10, for which the Resistance evaluation entry reads like this: (topramezone 25 g ai/ha (1x)) “Poorly resistant”; (topramezone 100 g ai/ha (4x)) “Non-resistant”.

(Values after patent US20230212587A1, “Mutant Hydroxyphenylpyruvate Dioxygenase Polypeptide, Encoding Gene Thereof and Use Therefor” (Beijing Dabeinong Biotechnology Co., Ltd., priority 2019, published 2023).)
